The values that follow come from patent US7008623 (GlaxoSmithKline, dated 2006).

For test [1], the target named is T1, soluble CD23 (sCD23) (human, UniProt P06734 150-321, limits assumed).
T1 sequence (looked up): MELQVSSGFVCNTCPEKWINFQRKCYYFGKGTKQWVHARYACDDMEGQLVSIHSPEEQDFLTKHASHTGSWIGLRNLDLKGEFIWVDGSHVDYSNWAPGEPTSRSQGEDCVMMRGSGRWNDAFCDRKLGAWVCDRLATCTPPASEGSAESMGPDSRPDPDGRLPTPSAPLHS
The test is described as follows: ELISA, plate coated with sCD23, OD against antibody concentration. The protocol:
(§1) The chimaeric antibody bound sCD23 in an ELISA assay. For the ELISA assay to determine sCD23 binding, EIA/RIA plates (Costar) were coated with 100 µl/well of 2 µg/ml sCD23 in 35 mM NaHCO_3, 15 mM Na_2CO_3, pH 9.3 overnight at 4° C. Plates were washed three times with 150 mM NaCl, 50 mM Trizma base, 0.1% (v/v) Tween-20, pH 7.4 (TBS/Tween), blocked for 1–2 hours at 22° C. with 100 µl/well of 2% bovine serum albumin in TBS/Tween, and washed three times with TBS/Tween.
(§2) The concentration of chimeric and humanised anti-CD23 antibody required for half-maximal binding to sCD23 was assayed using the sCD23 ELISA already described. Absorbance at 405 nm was plotted versus a range of concentrations of antibody to generate a sigmoidal curve with a "goodness of fit" or correlation coefficient of 1. The absorbance was read using a Molecular Devices plate reader (Menlo Park, Calif., USA) and Softmax (Molecular Devices Corp) software to calculate best fit by a log-logit algorithm then display the curve, equation parameters and correlation coefficient. A discussion of curve fitting appears in "Data Analysis and Quality Control of Assays: A Practical Primer", by R P Channing Rogers in Practical Immuno Assay, editor Wilfrid R Butt; published by Marcel Dekker, Inc., New York 1984. […] The value for x in ng/ml was calculated for the following equation: […]
A general note: An ELISA detects its analyte on a solid surface through an enzyme-linked reagent.

The target of test [2] is T2, purified recombinant CD23 (human, UniProt P06734 150-321, limits assumed).
T2 construct: also called CD23 antigen; immobilised CD23
T2 sequence (looked up): T1 sequence (looked up)
The experiment in a line: Biacore SPR, recombinant CD23 immobilised on CM5, antibody in solution; upper end of the range over 6 batches. The procedure: (§3) The association rate, dissociation rate and the dissociation rate constant for the binding of humanised anti-CD23 to the CD23 antigen was evaluated on the Biacore Biosensor. Briefly, purified recombinant CD23 was immobilised onto a CM5 sensor surface. Carboxyl groups on the dextran surface were activated by 1-ethyl-3(3-dimethylaminopropyl) carbidimide (EDCO/N-hydroxysuccimimide (NHS). Following activation, recombinant CD23 was passed over the surface to initiate immobilisation. Ethanolamine was then added to quench residual active groups. Humanised anti-CD23 diluted in HBS buffer was passed over the sensor surface. Binding of anti-CD23 to immobilised CD23 was monitored in real time for estimation of the association rate (M^-1 seq^-1). Dissociation of the CD23 and the anti-CD23 complex in buffer was also monitored for estimation of the dissociation rate (sec^-1). The dissociation constant (nM) was calculated from the dissociation and association rate. […] The affinity constant was determined to be approximately 9 ×10^10 Ka mol^-1.
(Surface plasmon resonance follows binding to a sensor surface in real time, without labels.)

In test [3] the target is T2, purified recombinant CD23. The test is described as follows: Biacore SPR, recombinant CD23 immobilised on CM5; affinity (association) constant. The procedure: as §3
The target of test [4] is T2, purified recombinant CD23. The test is described as follows: Biacore SPR, recombinant CD23 immobilised on CM5, antibody in solution; lower end of the range over 6 batches. The procedure: as §3
Test [5] addresses T2, purified recombinant CD23. The test is described as follows: Biacore SPR, recombinant CD23 immobilised on CM5, calculated from the rates; lower end of the range over 6 batches. The procedure:
as §3

Test [6] addresses T1, soluble CD23 (sCD23). The test is described as follows: ELISA, sCD23 coated on plate, antibody concentration for half-maximal binding (log-logit fit). The procedure: as §1, §2

B1: humanised anti-CD23 antibody (IgG1 with mutations 248 Leu to Ala and 250 Gly to Ala, human kappa) (antibody, V domains shown)
VH: EVQLVESGGGLVKPGGSLRLSCAASGFTFSGYWMSWVRQAPGKGLEWVAEIRLKSDNYATHYAESVKGKFTISRDDSKSRLYLQMNSLKTEDTAVYYCTDFIDWGQGTLVTVSS
VL: DIVMTQSPLSLPVTPGEPASISCRSSKSLLYKDGKTYLNWYLQKPGQSPQLLIYLMSTRASGVPDRFSGSGSGTDFTLKISRVEAEDVGVYYCQQLVEYPFTFGQGTKVEIKR
notes: The light chain constant region is human kappa; also called humanised CD23 IgG1m
As a reminder, the EC50 (read off the curve) is the concentration that produces a half-maximal response. Read a high EC50 (read off the curve) as lower potency in that assay. The term koff denotes the rate constant with which the complex falls apart. What is called kon is the second-order rate constant of association. In general, Kd refers to a measure of binding affinity in units of concentration. The term EC50 denotes the concentration at which the effect is half-maximal. Higher therefore signals weaker potency. In the case of B1, the concentration for a half-maximal effect (EC50 (read off the curve)) with soluble CD23 (sCD23) [1] was ~0.03 µg/mL. Besides, the koff in test [2] was 2e-05 s⁻¹. Besides, the Ka in test [3] is ~9e+10 M⁻¹. Also, in test [4], the koff was determined as 1e-05 s⁻¹ and the kon lay in the range of 1.5e+06 to 1.85e+06 M⁻¹ s⁻¹. The Kd in test [5] was 8 to 12 pM. In addition, the EC50 with soluble CD23 (sCD23) [6] came out at 0.015 µg/mL.

B2: chimaeric anti-CD23 antibody (murine C11 variable regions, human gamma 1 and human kappa constant regions) (antibody, human IgG1, V domains shown)
VH: EVKLEESGGGLVQPGGSMKLSCVASGFTFSGYWMSWVRQSPEKGLEWVAEIRLKSDNYATHYAESVKGKFTISRDDSKSRLYLQMNSLRAEDSGVYYCTDFIDWGQGTL
VL: DIVITQDELSNPVTSGESVSISCRSSKSLLYKDGKTYLNWFLQRPGQSPQLLMYLMSTRASGVSDRFSGSGSGTDFTLEISRVKAEDVGVYYCQQLVEYPFTFGSGTKLEIKR
notes: The VH is fused to the human IgG1 (gamma 1) constant region of Reichmann et al 1988 and the VL to the human kappa constant region of Reichmann et al 1988; It was transiently expressed in COS cells and tested as supernatant; The variable regions were amplified with signal-peptide primers, so the entries may include a leader, and no cleavage site is stated; also called chimeric CD23; chimaeric CD23 …
In the case of B2, the “EC50 (read off the curve)” value with soluble CD23 (sCD23) [1] was ~0.06 µg/mL. The molecule further gave an EC50 with soluble CD23 (sCD23) [6] of 0.0163 µg/mL.
